Assay [1] addresses T1, intact human FGF21 (human, UniProt Q9NSA1 29-209).
T1 construct: also called full-length, uncleaved FGF21; iFGF21
T1 sequence: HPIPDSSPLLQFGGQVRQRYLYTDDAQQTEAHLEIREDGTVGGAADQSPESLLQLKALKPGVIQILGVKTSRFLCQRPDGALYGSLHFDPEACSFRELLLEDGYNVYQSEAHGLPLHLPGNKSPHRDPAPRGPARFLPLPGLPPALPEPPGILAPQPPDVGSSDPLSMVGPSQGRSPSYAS
Kind of assay: sandwich ELISA; capture mAb11, detection mAb4. From the text:
(§1) The absorbance values were plotted as a function of antibody concentration and the data were fitted to a three parameter equation for each antibody using Prism 6 (GraphPad Software, Inc., La Jolla, Calif.). The most consistent result was observed when antibodies mAb4 or 9 were used as the capture antibody and antibody mAb11 or mAb15 was used as the detector antibody (FIG. 2 and Table 7). Therefore, mAb8 and 16 were removed from further analysis.
In general terms: An ELISA detects its analyte on a solid surface through an enzyme-linked reagent.

Assay [2] concerns the target T2, FAP-cleaved human FGF21 (human, UniProt Q9NSA1 29-199).
T2 construct: Made by digesting intact human FGF21 with human FAP; also called cleaved FGF21; cFGF21
T2 sequence: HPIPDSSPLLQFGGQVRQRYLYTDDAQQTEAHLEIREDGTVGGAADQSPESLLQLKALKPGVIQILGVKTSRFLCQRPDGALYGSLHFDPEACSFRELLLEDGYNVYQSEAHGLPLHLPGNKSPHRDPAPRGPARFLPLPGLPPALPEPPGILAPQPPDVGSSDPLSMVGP
Kind of assay: sandwich ELISA; capture mAb11, detection mAb4.
From the text: as §1

In assay [3] the target is T1, intact human FGF21. Kind of assay: sandwich ELISA; capture mAb11, detection mAb15.
From the text: as §1

Assay [4] deals with T2, FAP-cleaved human FGF21. Put plainly: sandwich ELISA; capture mAb11, detection mAb15.
From the text: as §1

In assay [5] the target is T1, intact human FGF21. Kind of assay: sandwich ELISA, intact human FGF21; capture mAb11, detector mAb4.
Assay [6] deals with T1, intact human FGF21. Kind of assay: sandwich ELISA, intact human FGF21; capture mAb11, detector mAb9.
Assay [7] has as its target T2, FAP-cleaved human FGF21. Put plainly: sandwich ELISA; EC50 on FAP-cleaved FGF21 over EC50 on intact FGF21. Here is the method:
(§2) IgG obtained from the selected 20 hybridomas identified in Example 1 were further characterized by ELISA. ELISA was performed as follows: 96 well MaxiSorp plate (439454, Nalge Nunc International; Rochester, N.Y.) was coated with 1 μg/mL of anti-FGF21 mAbs or anti-FGF21 sheep pAbs (Cat. No. RD184108100, Biovendor, Asheville, N.C.) in coating buffer (50 mM sodium carbonate, pH 9.6) overnight at 4° C. […] After washing with the Washing buffer, the plate was incubated with 0.5 μg/ml of the secondary antibody (R&D Systems, biotinylated goat anti-FGF21 pAb BAF2539) for 1-2 hr at room temperature. After washing with Washing buffer, the plate was incubated with High Sensitivity Streptavidin-HRP (PIERCE Cat. No. 21130) diluted 1:1,000 in assay buffer. After washing with the Washing buffer, the binding of anti-FGF21 to recombinant FGF21 was assessed by adding substrate 3, 3′, 5, 5′ tetramethyl benzidine (TMBE 1000, Moss; Pasadena, Md.). The mean absorbance values from duplicate wells were plotted as a function of antibody concentration and the data were fitted to a three parameter equation to calculate the half maximal effective concentration (EC₅₀) values for each antibody using Prism 6 (GraphPad Software, Inc., La Jolla, Calif.) (Table 2).

Assay [8] addresses T1, intact human FGF21. Put plainly: sandwich ELISA; coated primary Ab, FGF21 titrated, detector biotinylated goat anti-FGF21 pAb BAF2539. Here is the method: as §2
Assay [9] concerns the target T2, FAP-cleaved human FGF21. Described as above. Here is the method:
as §2

Assay [10] deals with T1, intact human FGF21. Kind of assay: sandwich ELISA; capture mAb4, detection mAb11.
From the text: as §1

The target of assay [11] is T2, FAP-cleaved human FGF21. Kind of assay: sandwich ELISA; capture mAb4, detection mAb11.
From the text: as §1

Assay [12] deals with T1, intact human FGF21. Kind of assay: sandwich ELISA; capture mAb4, detection mAb15.
From the text: as §1

The target of assay [13] is T2, FAP-cleaved human FGF21. Put plainly: sandwich ELISA; capture mAb4, detection mAb15.
From the text: as §1

Assay [14] concerns the target T1, intact human FGF21. Kind of assay: sandwich ELISA; capture mAb4, detection mAb16.
From the text: as §1

Assay [15] concerns the target T2, FAP-cleaved human FGF21. Kind of assay: sandwich ELISA; capture mAb4, detection mAb16.
From the text: as §1

In assay [16] the target is T1, intact human FGF21. Kind of assay: sandwich ELISA, intact human FGF21; capture mAb4, detector mAb1. The source says:
(§3) The absorbance values were plotted as a function of antibody concentration and the data were fitted to a three parameter equation to calculate the half maximal effective concentration (EC₅₀) values for each antibody using Prism 6 (GraphPad Software, Inc., La Jolla, Calif.) (Table 6).

Assay [17] has as its target T1, intact human FGF21. Kind of assay: sandwich ELISA, intact human FGF21; capture mAb4, detector mAb10.
From the text: as §3

Assay [18] has as its target T1, intact human FGF21. Kind of assay: sandwich ELISA, intact human FGF21; capture mAb4, detector mAb11.
From the text: as §3

The target of assay [19] is T1, intact human FGF21. Kind of assay: sandwich ELISA; capture mAb9, detection mAb11.
From the text: as §1

The target in assay [20] is T2, FAP-cleaved human FGF21. Kind of assay: sandwich ELISA; capture mAb9, detection mAb11.
From the text: as §1

Assay [21] addresses T1, intact human FGF21. Kind of assay: sandwich ELISA; capture mAb9, detection mAb15.
From the text: as §1

Assay [22] concerns the target T2, FAP-cleaved human FGF21. Kind of assay: sandwich ELISA; capture mAb9, detection mAb15.
From the text: as §1

The target of assay [23] is T1, intact human FGF21. Put plainly: sandwich ELISA; capture mAb9, detection mAb16.
From the text: as §1

In assay [24] the target is T2, FAP-cleaved human FGF21. Kind of assay: sandwich ELISA; capture mAb9, detection mAb16.
From the text: as §1

For assay [25], the target named is T1, intact human FGF21. Put plainly: sandwich ELISA, intact human FGF21; capture mAb9, detector mAb1.
Assay [26] deals with T1, intact human FGF21. Put plainly: sandwich ELISA, intact human FGF21; capture mAb9, detector mAb10.
From the text: as §3

The target in assay [27] is T1, intact human FGF21. Put plainly: sandwich ELISA, intact human FGF21; capture mAb9, detector mAb11.
Assay [28] deals with T1, intact human FGF21. Put plainly: sandwich ELISA; capture mAb15, detection mAb4.
From the text: as §1

For assay [29], the target named is T2, FAP-cleaved human FGF21. Kind of assay: sandwich ELISA; capture mAb15, detection mAb4.
From the text: as §1

The target in assay [30] is T1, intact human FGF21. Kind of assay: sandwich ELISA; capture mAb15, detection mAb11.
From the text: as §1

Assay [31] concerns the target T2, FAP-cleaved human FGF21. Put plainly: sandwich ELISA; capture mAb15, detection mAb11.
From the text: as §1

Here are results for four molecules from patent US20210025890A1 (Genentech, published 2021).

B1: mAb11 (antibody, V domains shown)
VH: QVQLQQSGAELARPGASVKLSCKASGYTFTNYGISWVKQRTGQGLEWIGEIYPRSDNTYYNEKFKGKATLTADKSSSTAYMELRSLTSEDSAVYFCTRSDYGFFDYWGQGTTLTVSS
VL: QIVLTQSPALMSASPGERVTMTCSAGSSVSYMYWYQQKPRSSPKPWIYLTSNLASGVPARFSGSGSGTSYSLTISSMEAEDAATYYCQQWSSNPRTFGGGTKLEIKR
notes: Biotinylated when used as detector; also called BIO-11 (biotinylated); antibody 11
The term EC50 denotes the concentration at which the effect is half-maximal. Lower therefore signals an effect from little substance. Regarding B1, the EC50 was 0.205 ng/mL in assay [1]; 0.204 ng/mL in assay [2]; 0.774 ng/mL in assay [3]; 0.63 ng/mL in assay [4]; 0.161 ng/mL in assay [5]; 0.195 ng/mL in assay [6]. The EC50 in [8] was 0.149 ng/mL; in [9] it was 0.318 ng/mL. Further, the “EC50 ratio (Cleaved/Intact)” value in assay [7] was determined as 2.1.

B2: mAb4 (antibody, V domains shown)
VH: EVKLVESGGDLVKPGGSLKLSCAASGFTFSSYGMSWVRQTPDKRLEWVATISTGGGYTYYPDSVKGRFTISRDNAKNTLYLQMSSLRSEDTAMYYCARHDLVDWYFDVWGTGTTVTVSS
VL: QIVLTQSPAIMSAPLGERVTMTCTASSSVSSSYLHWYQQKPGSSPKVWIYRTTNLASGVPTRFSGSGSGTSYSLTISSMEAEDAATYYCHQYHRSPPTWTFGGGTKLEIKR
notes: Biotinylated when used as detector, coupled to beads in the Simoa assays; also called BIO-4 (biotinylated); antibody 4
For B2, the EC50 in [10] stood at 0.195 ng/mL; in assay [11], 0.148 ng/mL; in [12] it was 0.232 ng/mL; in [13], 0.263 ng/mL; in assay [14], 1.25 ng/mL; in assay [15], 7.04 ng/mL. The EC50 stood at 0.193 ng/mL in assay [16]; 0.108 ng/mL in [17]; 0.133 ng/mL in assay [18]; 0.09 ng/mL in assay [8]; 0.17 ng/mL in [9]. In addition, in [7], the “EC50 ratio (Cleaved/Intact)” value was determined as 1.9.

B3: mAb9 (antibody, V domains shown)
VH: EVQLQQSGPELVKPGASVKIPCKASGYTFTDYYMGWVKQSHGKSLEWIGDINPNNGVTINNQNFKGKATLTVDKSSSTAYMELRSLASEDTAVYYCTRGYGGALDYWGQGTSVTVSS
VL: DIQMTQSPASLSASVGETVIITCRASENIYSYLAWYQQKQGKSPQLLVYNIRTLAEGVPSRFSGSGSGTQFSLKINSLQPEDFGSYYCQHHYDSPWTFGGGTKLEIKR
notes: also called BIO-9 (biotinylated); antibody 9
Regarding B3, the EC50 in assay [19] was 0.166 ng/mL; in assay [20], 0.156 ng/mL; in [21], 0.431 ng/mL; in [22] it was 0.363 ng/mL; in assay [23] it was 1.45 ng/mL; in [24] it was 6.23 ng/mL. Besides, the EC50 was determined as 0.249 ng/mL in [25]; 0.161 ng/mL in assay [26]; 0.156 ng/mL in [27]; 0.855 ng/mL in assay [8]; 1.39 ng/mL in assay [9]. In addition, the “EC50 ratio (Cleaved/Intact)” value in assay [7] was found to be 1.6.

B4: mAb15 (antibody, V domains shown)
VH: QVQLIQSGPGLVQPSQSLSITCTVSGFSLTGYAIHWVRQSPGKGLEWLGMIWKSGNTDYNAAFMSRLSITKDNSKSQVFFKMNSLQADDTAIYYCARNGYDYEFVYWGQGTLVTVSA
VL: DVLMTQTPLSLPVSLGDQASISCRSSQIIVHNNGDTYLEWYLQKPGQSPKLLIYKISNRFSGVPDRFSGSGSGTDFTLKISRVEAEDLGVYYCFQGSHVPYTFGGGTKLEIKR
notes: Biotinylated when used as detector; also called BIO-15 (biotinylated); mAb15-Biotin
On to B4, for which the EC50 in assay [28] was found to be 0.537 ng/mL; in assay [29], 0.562 ng/mL; in [30], 1.39 ng/mL; in assay [31], 1.24 ng/mL.
